Experimental data reported in publication PMC10433801.

These substances were tested against CsrA-H6 (Salmonella Typhimurium / Escherichia coli (sequences stated identical)) (UniProt P69913) (assay: EMSA). Details: RNA EMSA: 10 mM Tris-HCl pH 7.5, 10 mM MgCl2, 100 mM KCl, 200 ng/uL yeast RNA, 0.2 mg/mL BSA, 7.5% glycerol, 20 mM DTT, 37 C 30 min; DNA EMSA: 10 mM Tris pH ….
Sequence of CsrA-H6 (Salmonella Typhimurium / Escherichia coli (sequences stated identical)) (UniProt P69913) (P69913 whole entry): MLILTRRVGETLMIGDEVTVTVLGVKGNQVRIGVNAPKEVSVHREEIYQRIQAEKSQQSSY
With “GGGACAAAAAAUUGCCACGAUGACGGCAGUUUCAGUGGAGACGGUGAGCAAUGAAUAAAGAACGCAUUAUUCAGGAAUUUGUGCCGGGCAAACAGGUC [eutS RNA (-47 to +48)]” the Kd was 5.7 nM.
“GGGACUUUUUAUCAGGGCCAGGAUAAUGGUAAUAAAAAGUGAAUGUAAAUAAUGUGUUUUGUUUAUAACAAUAAAUUAACUGAGGGGUUUUAUCAUG [pocR RNA (-91 to +3)]” showed a Kd of 7.4 nM.
In the case of “GGGUUCUUAUAGUCCCAACUAUCGGAACACUCCAUGCGAGGUCUUUAUGCAACAAGAAGCACUAGGAAUGGUAGAAACCAAAGG [pduA RNA (-44 to +38)]”, the Kd is reported as 31 nM.

Each substance was assayed on CsrA-H6 (Salmonella Typhimurium / Escherichia coli (sequences stated identical)) (assay: EMSA). Details: 10 mM MgCl2; yeast RNA 200 ng/uL; apparent Kd; RNA EMSA: 10 mM Tris-HCl pH 7.5, 10 mM MgCl2, 100 mM KCl, 200 ng/uL yeast RNA, 0.2 mg/mL BSA, 7.5% glycerol, 20 mM DTT, 37 C 30 min; DNA EMSA: 10 mM Tris pH ….
With eutS RNA (-47 to +48) the Kd was 5.7 nM.
Substance pduA RNA (-44 to +38) has a Kd of 31 nM.
In the case of pocR RNA (-91 to +3), the Kd is reported as 7.4 nM.
